Reference: the supplement of paper PMC9112550, “Optimization of the antimicrobial peptide Bac7 by deep mutational scanning” (BMC Biology, 2022)

Tested on: Escherichia coli TOP10
Experiment: shrunken log2 fold change of peptide-encoding DNA abundance (4.5 h post-induction vs induction); higher = less antimicrobial activity (less host growth inhibition)
Conditions: time post-induction: 4.5 h; library: site-saturation at positions 5, 18, 19, 20
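Also: peptides expressed intracellularly from a pBAD plasmid library in pooled LB shake-flask culture, induced with 0.3% L-arabinose, DNA abundance read by NGS, three biological replicates, DESeq2 with apeglm shrinkage.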

Sequence	shrunken log2 fold change
RRIRFRPPRLPRPRPRPQFYPRP	-0.592
RRIRIRPPRLPRPRPRPQGSPRP	-0.0316
RRIRKRPPRLPRPRPRPDRSPRP	-0.231
RRIRLRPPRLPRPRPRPYKPPRP	-0.789
RRIRVRPPRLPRPRPRPTGCPRP	0.0918
RRIRQRPPRLPRPRPRPTDLPRP	0.0327
RRIRFRPPRLPRPRPRPDAGPRP	0.121
RRIRCRPPRLPRPRPRPVDPPRP	0.227
RRIRNRPPRLPRPRPRPSKNPRP	-0.267
RRIRSRPPRLPRPRPRPFITPRP	-0.798
RRIRLRPPRLPRPRPRPGGTPRP	-0.0425
RRIRYRPPRLPRPRPRPCKVPRP	-0.422
RRIRERPPRLPRPRPRPEEKPRP	-0.0137
RRIRKRPPRLPRPRPRPGGDPRP	0.16
RRIRIRPPRLPRPRPRPNDDPRP	-0.0364
RRIRHRPPRLPRPRPRPARPPRP	0.502
RRIRLRPPRLPRPRPRPASHPRP	0.0961
RRIRNRPPRLPRPRPRPQYYPRP	-0.128
RRIRERPPRLPRPRPRPIQQPRP	-0.0452
RRIRNRPPRLPRPRPRPAVNPRP	-0.169
RRIRMRPPRLPRPRPRPSAMPRP	1.44
RRIRSRPPRLPRPRPRPRCTPRP	0.0731

Sequence	shrunken log2 fold change
RRIRPRPPRLPRPRPRPTWRPRP	0.639
RRIRCRPPRLPRPRPRPNTQPRP	-0.0903
RRIRHRPPRLPRPRPRPFVVPRP	-0.16
RRIRIRPPRLPRPRPRPTCIPRP	-0.193
RRIRMRPPRLPRPRPRPQQRPRP	0.586
RRIRMRPPRLPRPRPRPLDLPRP	0.062
RRIRSRPPRLPRPRPRPWYWPRP	-0.307
RRIRTRPPRLPRPRPRPEYGPRP	-0.0673
RRIRFRPPRLPRPRPRPQNNPRP	-0.656
RRIRIRPPRLPRPRPRPDPFPRP	0.261
RRIRPRPPRLPRPRPRPFQPPRP	-0.0843
RRIRVRPPRLPRPRPRPNCNPRP	-0.273
RRIRMRPPRLPRPRPRPKCYPRP	-0.0362
RRIRQRPPRLPRPRPRPQRHPRP	0.0218
RRIRKRPPRLPRPRPRPPPLPRP	0.661
RRIRFRPPRLPRPRPRPTGIPRP	-0.26
RRIRYRPPRLPRPRPRPAENPRP	-0.317
RRIRDRPPRLPRPRPRPLTNPRP	-0.19
RRIRLRPPRLPRPRPRPVPAPRP	0.222
RRIRLRPPRLPRPRPRPVGGPRP	0.516
RRIRHRPPRLPRPRPRPGAQPRP	0.187
RRIRPRPPRLPRPRPRPEKDPRP	-0.0428

Sequence	shrunken log2 fold change
RRIRLRPPRLPRPRPRPDDLPRP	-0.0581
RRIRPRPPRLPRPRPRPIIPPRP	-0.339
RRIRNRPPRLPRPRPRPGGKPRP	-0.101
RRIRDRPPRLPRPRPRPPEWPRP	0.557
RRIRRRPPRLPRPRPRPKPMPRP	0.687
RRIRTRPPRLPRPRPRPTTRPRP	0.223
RRIRTRPPRLPRPRPRPWVVPRP	-0.0414
RRIRLRPPRLPRPRPRPFSIPRP	-0.158
RRIRNRPPRLPRPRPRPARIPRP	-0.0767
RRIRVRPPRLPRPRPRPEHEPRP	-0.12
RRIRVRPPRLPRPRPRPESSPRP	0.00518
RRIRQRPPRLPRPRPRPRMIPRP	-0.227
RRIRHRPPRLPRPRPRPGMWPRP	-0.0849
RRIRHRPPRLPRPRPRPPHPPRP	0.15
RRIRWRPPRLPRPRPRPSSDPRP	-0.0856
RRIRARPPRLPRPRPRPLAVPRP	0.716
RRIRCRPPRLPRPRPRPRFLPRP	-0.232
RRIRYRPPRLPRPRPRPAIQPRP	-0.316
RRIRHRPPRLPRPRPRPNTPPRP	0.0157
RRIRWRPPRLPRPRPRPCDNPRP	0.0838
RRIRKRPPRLPRPRPRPAWNPRP	1
RRIRCRPPRLPRPRPRPEPSPRP	0.146

Sequence	shrunken log2 fold change
RRIRCRPPRLPRPRPRPTWEPRP	-0.0631
RRIRPRPPRLPRPRPRPKREPRP	0.1
RRIRLRPPRLPRPRPRPHVFPRP	-0.0592
RRIRKRPPRLPRPRPRPTLLPRP	0.083
RRIRNRPPRLPRPRPRPFYLPRP	-0.0716
RRIRCRPPRLPRPRPRPLYPPRP	-0.729
RRIRGRPPRLPRPRPRPMAKPRP	0.658
RRIRERPPRLPRPRPRPWRRPRP	0.115
RRIRVRPPRLPRPRPRPQEFPRP	-0.06
RRIRFRPPRLPRPRPRPLHDPRP	-0.107
RRIRHRPPRLPRPRPRPGYTPRP	-0.302
RRIRTRPPRLPRPRPRPFNSPRP	-0.127
RRIRARPPRLPRPRPRPEMHPRP	1.1
RRIRGRPPRLPRPRPRPCNIPRP	-0.284
RRIRDRPPRLPRPRPRPFWHPRP	-0.166
RRIRTRPPRLPRPRPRPCNSPRP	-0.0206
RRIRVRPPRLPRPRPRPCIHPRP	0.0261
RRIRIRPPRLPRPRPRPWDNPRP	-0.339
RRIRQRPPRLPRPRPRPCDAPRP	-0.027
RRIRHRPPRLPRPRPRPRHNPRP	-0.4
RRIRDRPPRLPRPRPRPESSPRP	0.27
RRIRFRPPRLPRPRPRPERLPRP	0.265

Sequence	shrunken log2 fold change
RRIRYRPPRLPRPRPRPFRCPRP	0.0856
RRIRRRPPRLPRPRPRPVQEPRP	-0.00475
RRIRIRPPRLPRPRPRPVTTPRP	-0.0229
RRIRERPPRLPRPRPRPQAVPRP	0.0552
RRIRSRPPRLPRPRPRPLCAPRP	0.281
RRIRIRPPRLPRPRPRPPTSPRP	-0.172
RRIRTRPPRLPRPRPRPEALPRP	0.0496
RRIRMRPPRLPRPRPRPLSKPRP	-0.103
RRIRRRPPRLPRPRPRPLDEPRP	0.632
RRIRYRPPRLPRPRPRPFYVPRP	-0.602
RRIRLRPPRLPRPRPRPIAFPRP	-0.14
RRIRNRPPRLPRPRPRPIALPRP	-0.0133
RRIRRRPPRLPRPRPRPCRRPRP	0.0946
RRIRCRPPRLPRPRPRPQSKPRP	-0.448
RRIRLRPPRLPRPRPRPIGLPRP	0.00285
RRIRGRPPRLPRPRPRPGFQPRP	0.157
RRIRVRPPRLPRPRPRPTLPPRP	0.335
RRIRPRPPRLPRPRPRPLTIPRP	-0.275
RRIRSRPPRLPRPRPRPQFSPRP	-0.152
RRIRKRPPRLPRPRPRPCNKPRP	0.0197
RRIRHRPPRLPRPRPRPTSLPRP	-0.135
